According to patent publication US20050158298A1:

Key:
[1] = molecular target: gliadin 33mer …; test: cell-based or functional assay
[2] = tested on: gliadin 33mer LQLQPFPQPQLPYPQPQLPYPQPQLPYPQPQPF
[3] = molecular target: T1, gliadin 33mer LQLQPFPQPQLPYPQPQLPYPQPQLPYPQPQPF
T1 chain: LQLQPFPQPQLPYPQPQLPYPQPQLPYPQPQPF

[4] = molecular target: T2, gliadin 14mer PQPQLPYPQPQLPY
T2 chain: PQPQLPYPQPQLPY

Molecule: Pronase
- digestion of the peptide over 20 h, E/S=1/25 [1]: < 40%

Molecule: Chymotrypsin
- digestion of the peptide [2]: Chymotrypsin alone or supplemented with ruLAP or DPPIV is not able to breakdown the peptide

B1: cytosolic leucine aminopeptidase from porcine kidney (Sigma) (protein)
chain: TKGLVLGIYSKEKEDDAPQFTSAGENFDKLVSGKLREILNISGPPLKAGKTRTFYGLHEDFSSVVVVGLGKKGAGVDDQENWHEGKENIRAAVAAGCRQIQDLEIPSVEVDPCGDAQAAAEGAVLGLYEYDELKQKKKVVVSAKLHGSGDQEAWQRGVLFASGQNLARHLMETPANEMTPTRFAEVIEKNLKSASSKTDVHIRPKSWIEEQEMGSFLSVAKGSEEPPVFLEIHYKGSPDASDPPLVFVGKGITFDSGGISIKASANMDLMRADMGGAATICSTIVSAAKLDLPINLVGLAPLCENMPSGKANKPGDVVRAKNGKTIQVDNTDAEGRLILADALCYAHTFNPKVIINAATLTGAMDIALGSGATGVFTNSSWLWNKLFEASIETGDRVWRMPLFEHYTKQIVDCQLADVNNIGKYRSAGACTAAAFLKEFVTHPKWAHLDIAGVMTNKDEVPYLRKGMAGRPTRTLIEFLLRFSQDSA
- digestion of the peptide, RP-HPLC [3]: totally inactive towards the 33mer

B2: microsomal leucine aminopeptidase from porcine kidney (Sigma) (protein)
chain: KPWNRYRLPTTLLPDSYNVTLRPYLTPNADGLYIFKGKSIVRLLCQEPTDVIIIHSKKLNYTTQGHMVVLRGVGDSQVPEIDRTELVELTEYLVVHLKGSLQPGHMYEMESEFQGELADDLAGFYRSEYMEGNVKKVLATTQMQSTDARKSFPCFDEPAMKATFNITLIHPNNLTALSNMPPKGSSTPLAEDPNWSVTEFETTPVMSTYLLAYIVSEFQSVNETAQNGVLIRIWARPNAIAEGHGMYALNVTGPILNFFANHYNTSYPLPKSDQIALPDFNAGAMENWGLVTYRENALLFDPQSSSISNKERVVTVIAHELAHQWFGNLVTLAWWNDLWLNEGFASYVEYLGADHAEPTWNLKDLIVPGDVYRVMAVDALASSHPLTTPAEEVNTPAQISEMFDSISYSKGASVIRMLSNFLTEDLFKEGLASYLHAFAYQNTTYLDLWEHLQKAVDAQTSIRLPDTVRAIMDRWTLQMGFPVITVDTKTGNISQKHFLLDSESNVTRSSAFDYLWIVPISSIKNGVMQDHYWLRDVSQAQNDLFKTASDDWVLLNVNVTGYFQVNYDEDNWRMIQHQLQTNLSVIPVINRAQVIYDSFNLATAHMVPVTLALDNTLFLNGEKEYMPWQAALSSLSYFSLMFDRSEVYGPMKKYLRKQVEPLFQHFETLTKNWTERPENLMDQYSEINAISTACSNGLPQCENLAKTLFDQWMSDPENNPIHPNLRSTIYCNAIAQGGQDQWDFAWGQLQQAQLVNEADKLRSALACSNEVWLLNRYLGYTLNPDLIRKQDATSTINSIASNVIGQPLAWDFVQSNWKKLFQDYGGGSFSFSNLIQGVTRRFSSEFELQQLEQFKKNNMDVGFGSGTRALEQALEKTKANIKWVKENKEVVLNWFIEHS
- digestion of the peptide, RP-HPLC and ESI-MS [3]: results only in a partial deletion of N-terminal Leu and C-terminal Phe (due to a carboxypeptidasic contaminant)

B3: recombinant ruLAP2 produced in P. pastoris (protein)
chain: RLVGQEPFGWPFKPMVTQDDLQNKIKLKDIMAGVEKLQSFSDAHPEKNRVFGGNGHKDTVEWIYNEIKATGYYDVKKQEQVHLWSHAEAALNANGKDLKASAMSYSPPASKIMAELVVAKNNGCNATDYPANTQGKIVLVERGVCSFGEKSAQAGDAKAAGAIVYNNVPGSLAGTLGGLDKRHVPTAGLSQEDGKNLATLVASGKIDVTMNVISLFENRTTWNVIAETKGGDHNNVIMLGAHSDSVDAGPGINDNGSGSIGIMTVAKALTNFKLNNAVRFAWWTAEEFGLLGSTFYVNSLDDRELHKVKLYLNFDMIGSPNFANQIYDGDGSAYNMTGPAGSAEIEYLFEKFFDDQGIPHQPTAFTGRSDYSAFIKRNVPAGGLFTGAEVVKTPEQVKLFGGEAGVAYDKNYHRKGDTVANINKGAIFLNTRAIAYAIAEYARSLKGFPTRPKTGKRDVNPQYSKMPGGGCGHHTVFM
- removal of the N-terminal residue; mass loss by ESI-MS (Ala-proNPY): the N-terminal alanine was almost totally removed (molecular mass loss of 71 amu) from proNPY
- removal of N-terminal residues; mass loss by ESI-MS (Gly-Ser-proNPY): cleavage of the two N-terminal residues Gly-Ser with a theoretical loss of 144.1 amu (found 144.2)
- digestion of the peptide, 37 C, 4 h, RP-HPLC and ESI-MS [4]: the 14mer is not digested with ruLAP2 within 4 h
- degradation of the peptide within 4 h, RP-HPLC [3]: partial degradation (less than 50%) of the peptide within 4 h
